Measurements from US20140308259A1 (University of Pennsylvania, published 2014).
Each block holds one binder with its values, some of them ahead of it.

Molecular target: T1, human B7-H4 at the cell surface (human, UniProt Q7Z7D3 25-282)
T1 sequence (looked up): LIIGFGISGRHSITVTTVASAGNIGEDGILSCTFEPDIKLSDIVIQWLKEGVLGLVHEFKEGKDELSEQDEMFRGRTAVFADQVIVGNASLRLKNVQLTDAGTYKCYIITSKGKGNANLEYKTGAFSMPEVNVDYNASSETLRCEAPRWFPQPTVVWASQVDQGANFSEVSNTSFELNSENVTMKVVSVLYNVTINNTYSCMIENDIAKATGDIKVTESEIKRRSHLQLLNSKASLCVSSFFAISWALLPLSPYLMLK
Experiment: cell-based or functional assay

IFN-γ production of MART-1 TCR T cells in presence of B7-H4+ TAMs: > 2 folds
B1: anti-B7H4 scFv clone 3#68 (scFv)
scFv: QPGLTQPPSASGTPGQRVTISCSGSSSNIGSNYVYWYQQFPGTAPKLLIYRNNQRPSGVPDRFSGSKSGTSASLAISGLRSEDEADYYCAAWDDSLSVWVFGGGTKVTVLGGSSRSSSSGGSGSGGGGQVTLKESGAEVKNPGSSVKVSCKASGGTFSSYAISWLRQAPGQGLEWMGWINPNSGGSDYAQRFQGRVTMTRDTSINTVYMELSRLRSDDTAVYYCARVEKRGYYYGMDVWGQGTMVTVSSFEGSEQ

IFN-γ production of MART-1 TCR T cells in presence of B7-H4+ TAMs: > 2 folds
B2: anti-B7H4 scFv clone 3#54 (scFv)
scFv: RPVLTQPPSAAGTPGQRVTISCSGSSSNIGSNYVYWYQQLPGMAPKLLIYTNNQRPSGVPGRFSGSKSGTSASLAISGLRSEDEADYYCAAWDDSLNGWVFGGGTELTVLGGSSRSSSSGGGGSGGGGQVQLQESGPGLVKPSETLSLTCNVSGRSVSSGFYWSWIRQRPGKGLEWVGSIYRSGLTYYNPSLKSRVTISVDTSKNQFSLKLSSVTAADTAVYYCARATPWYYYGMDVWGQGTTVTVSSFEGSEQ
